Measurements taken from publication doi:10.1101/580043 (bioRxiv, 2019).
Blank lines part the entries; values can stand above or below the binder they belong to. Where no end group is shown, it is not given here.

Tests used:
[1] = biological target: T1, Recombinant full-length MBP-tagged PRG-1 (C. elegans, UniProt P90786 1-824); assay: MST
T1 sequence (looked up): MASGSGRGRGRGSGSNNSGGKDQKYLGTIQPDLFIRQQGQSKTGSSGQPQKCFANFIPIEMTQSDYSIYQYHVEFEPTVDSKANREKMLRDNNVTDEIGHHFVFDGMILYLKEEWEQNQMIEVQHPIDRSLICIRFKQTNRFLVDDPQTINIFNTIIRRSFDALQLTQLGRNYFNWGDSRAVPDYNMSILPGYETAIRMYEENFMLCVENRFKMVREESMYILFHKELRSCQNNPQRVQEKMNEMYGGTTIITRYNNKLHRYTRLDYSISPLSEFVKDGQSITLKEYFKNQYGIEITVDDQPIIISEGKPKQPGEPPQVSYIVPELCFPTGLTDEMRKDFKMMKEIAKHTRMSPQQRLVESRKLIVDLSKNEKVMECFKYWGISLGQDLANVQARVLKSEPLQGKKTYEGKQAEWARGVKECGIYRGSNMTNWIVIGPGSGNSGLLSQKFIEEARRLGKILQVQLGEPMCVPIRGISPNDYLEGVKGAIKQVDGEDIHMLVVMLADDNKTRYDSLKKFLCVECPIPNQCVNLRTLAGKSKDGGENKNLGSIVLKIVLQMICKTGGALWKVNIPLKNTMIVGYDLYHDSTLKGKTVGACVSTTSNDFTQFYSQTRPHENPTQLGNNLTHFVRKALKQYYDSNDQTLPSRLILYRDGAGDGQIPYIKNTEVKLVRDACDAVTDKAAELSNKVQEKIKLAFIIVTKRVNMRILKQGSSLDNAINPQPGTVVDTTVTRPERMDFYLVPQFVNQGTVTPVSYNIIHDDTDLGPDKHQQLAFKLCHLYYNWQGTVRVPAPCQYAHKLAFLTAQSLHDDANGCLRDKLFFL

[2] = biological target: MBP-tagged PRG-1 PIWI domain (C. elegans); assay: MST

Kd [1]: 855 nM
B1: Recombinant full-length MBP-tagged DEPS-1 (natural protein, C. elegans, UniProt Q9N303 1-619, looked up)
chain: MSERQSKYFDYQGIVISSTGQDNQDSETDLVYLIQAHGKAAPKNIMYGVSKCAFVPTNLERNFDNIEEAKNLERRSKIPLKFGEVILWNESDCDHDKRIILHIKREKPIYEASSSRNGLILKVGGVIQPTSTTSFWTPLCTVTMPETEATRAEPDVWLYAWIRFETTMKSGLDPFNMTATFESFDSCDPSDQARVCEAPWNAGSPDSKFGVWRPDPKPADSDDEIDIEPREGWHLPEDKWAEVIKMQLGLYVGERLLICKELSQFDFIIPLQKPFSRGTDKTLIYPAVGEYFHFSAIWSMQHNGFLIYELQPVPLLRQHVTSVNGNLLTRVVPASIRGLFVDKEGTLGLIDDPHHLLSFFEFHPAGYEFLKAMAEVRAVRTSENKSVRYRIVRTSGMSIFENWLRDTQFVVGPVKGIRINEDTVICAKHPNVYFKIPNNLKEGIPIGGGVQFVGKRQAGVDSEIMITECSPCPAFTCKNYSVSGDTRLFQVYLKPNCDHEQLAESDSMGFVDFRELETPCRGKFLAWVRESITVNDCRRAATIMEVCSTAICPPLIAMSANSSRATSARTTPAGSSIGSRSSIQSRASAATSVSSNRFVGPSSRRTPSGTPQSSTSSRV
modifications: labelled with atto-488 NHS ester

Kd [2]: 1900 nM
Binder: NFDNIEEAKNLERRSKIPLKFGEVILWNESDCDHDKRIIL (also: labelled with atto-488 NHS ester, site not given here) [DEPS-1 PBS motif peptide]
